According to patent publication EP4796562A1 (Shanghai Simnova Biotechnology Co., Ltd., dated 2026):

T1: DLL3 endogenously expressed on SHP77 cells (human, UniProt Q9NYJ7 27-618)
T1 construct: whole, on cells; also called human DLL3 on SHP-77
T1 sequence (looked up): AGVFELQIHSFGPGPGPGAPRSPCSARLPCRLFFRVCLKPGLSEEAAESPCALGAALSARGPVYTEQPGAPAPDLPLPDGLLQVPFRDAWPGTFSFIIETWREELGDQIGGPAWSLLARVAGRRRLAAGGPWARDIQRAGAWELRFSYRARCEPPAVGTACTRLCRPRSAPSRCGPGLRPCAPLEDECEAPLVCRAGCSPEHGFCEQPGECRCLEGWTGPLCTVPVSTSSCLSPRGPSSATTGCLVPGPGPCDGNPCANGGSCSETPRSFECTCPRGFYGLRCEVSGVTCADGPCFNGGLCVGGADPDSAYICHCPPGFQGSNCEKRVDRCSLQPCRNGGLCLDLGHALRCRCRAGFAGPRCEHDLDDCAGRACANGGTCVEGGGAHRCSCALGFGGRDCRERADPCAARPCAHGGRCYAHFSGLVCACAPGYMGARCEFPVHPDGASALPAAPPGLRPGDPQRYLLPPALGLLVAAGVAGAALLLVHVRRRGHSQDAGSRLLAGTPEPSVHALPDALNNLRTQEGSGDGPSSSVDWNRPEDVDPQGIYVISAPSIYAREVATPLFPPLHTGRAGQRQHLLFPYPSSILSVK


Target: T1, DLL3 endogenously expressed on SHP77 …
Assay: flow cytometry (FACS) on SHP77 cells

| Binder | binding result |
| --- | --- |
| DLL3-scFv-2 (scFv, Murine anti-DLL3 clone; also called DLL3 chimeric antibody DLL3-scFv-2) scFv: DIVMTQSPATLSVTPGDRVSLSCRASQTISDYLHWYQQRSHESPRLLIKYASQSISGIPSRFSGSGSGSDFTLSINSVEPEDVGVYYCQNGHSFPLTFGAGTKLELKGGGGSGGGGSGGGGSEVQLQQSGTVLARPGASVKMSCKTSGYTFTSYWMHWVKQSPGQGLEWIGTIYPGNSDTRYNQKFKDKAYVTAVTSASTAYMELSSLTNEESAVYYCTRSYDYGDLDYWGQGTTLTVSS | binds |
| DLL3-scFv-3 (scFv, Murine anti-DLL3 clone; also called DLL3 chimeric antibody DLL3-scFv-3) scFv: DIVLTQSPASLAVSLGQRATISCRASKSVSTSGFSYMHWYQQKPGQPPKLLIYLASNLESGVPARFSGSGSGTDFTLNIHPVEEEDAATYYCQHSRELPFTFGSGTKLEIKGGGGSGGGGSGGGGSQVQLQQSGAELVKPGASVRISCKASGYAFSNYWINWVKQRPGKGLEWIGQINPGDGDTIYNGKFKGKATLTADKSSSTAYMQLSSLTSEDSAVYFCEREGRNYGDFAYWGQGTTLTVSS | binds |
| DLL3-scFv-1 (scFv, Murine anti-DLL3 clone; also called DLL3 chimeric antibody DLL3-scFv-1) scFv: DIVMTQSQKFMSTSVGDRVSITCKASQNVGTAVAWYQQKPGQSPKLLIFSASIRYTGVPDRFTGSGSGTDFTLTISNMQSEDLADYFCQQYSSSPYTFGGGTKLEIKGGGGSGGGGSGGGGSEVQLQQSGPVLVKPGASVKMSCKASGYTFTDYYMNWVKRSHGKSLEWIGIINPYNGGTSYNQKFRGKATLTVDKSSNTAYMELNSLTSEDSAVYYCSRYDYDYDVEGAMDYWGQGTSVTVSS | binds |
